The target in data set [1] is T1, FOXM1 full-length (UniProt Q08050-2 1-748).
T1 sequence: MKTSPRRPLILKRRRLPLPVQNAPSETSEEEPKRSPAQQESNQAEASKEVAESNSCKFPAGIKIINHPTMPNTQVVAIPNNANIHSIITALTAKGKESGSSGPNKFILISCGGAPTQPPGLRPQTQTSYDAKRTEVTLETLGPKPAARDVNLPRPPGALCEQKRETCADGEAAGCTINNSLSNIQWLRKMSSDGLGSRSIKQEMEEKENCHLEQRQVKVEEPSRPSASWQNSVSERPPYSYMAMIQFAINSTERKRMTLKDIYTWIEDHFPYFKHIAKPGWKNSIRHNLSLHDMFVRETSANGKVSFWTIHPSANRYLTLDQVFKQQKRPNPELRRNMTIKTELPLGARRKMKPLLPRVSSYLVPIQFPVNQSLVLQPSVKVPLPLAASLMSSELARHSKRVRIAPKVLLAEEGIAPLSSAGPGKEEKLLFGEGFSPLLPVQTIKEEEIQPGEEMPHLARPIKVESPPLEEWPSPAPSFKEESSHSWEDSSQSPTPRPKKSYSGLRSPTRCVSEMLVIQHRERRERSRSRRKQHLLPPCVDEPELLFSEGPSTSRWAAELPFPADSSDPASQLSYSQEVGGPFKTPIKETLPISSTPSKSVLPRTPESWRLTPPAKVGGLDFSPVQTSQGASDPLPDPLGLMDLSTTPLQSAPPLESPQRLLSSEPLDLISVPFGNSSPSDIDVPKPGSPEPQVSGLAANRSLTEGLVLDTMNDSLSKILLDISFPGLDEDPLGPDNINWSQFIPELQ
Put plainly: EMSA. (In general: Mobility shift assays separate free from complexed probe on a gel.)

For data set [2], the target named is T2, FOXM1 full-length;M1-138 (6xHis-FOXM1(1-138)-R9) (human?;human?, UniProt Q08050-2;Q08050-2 1-748;1-138, |).
T2 sequence 1: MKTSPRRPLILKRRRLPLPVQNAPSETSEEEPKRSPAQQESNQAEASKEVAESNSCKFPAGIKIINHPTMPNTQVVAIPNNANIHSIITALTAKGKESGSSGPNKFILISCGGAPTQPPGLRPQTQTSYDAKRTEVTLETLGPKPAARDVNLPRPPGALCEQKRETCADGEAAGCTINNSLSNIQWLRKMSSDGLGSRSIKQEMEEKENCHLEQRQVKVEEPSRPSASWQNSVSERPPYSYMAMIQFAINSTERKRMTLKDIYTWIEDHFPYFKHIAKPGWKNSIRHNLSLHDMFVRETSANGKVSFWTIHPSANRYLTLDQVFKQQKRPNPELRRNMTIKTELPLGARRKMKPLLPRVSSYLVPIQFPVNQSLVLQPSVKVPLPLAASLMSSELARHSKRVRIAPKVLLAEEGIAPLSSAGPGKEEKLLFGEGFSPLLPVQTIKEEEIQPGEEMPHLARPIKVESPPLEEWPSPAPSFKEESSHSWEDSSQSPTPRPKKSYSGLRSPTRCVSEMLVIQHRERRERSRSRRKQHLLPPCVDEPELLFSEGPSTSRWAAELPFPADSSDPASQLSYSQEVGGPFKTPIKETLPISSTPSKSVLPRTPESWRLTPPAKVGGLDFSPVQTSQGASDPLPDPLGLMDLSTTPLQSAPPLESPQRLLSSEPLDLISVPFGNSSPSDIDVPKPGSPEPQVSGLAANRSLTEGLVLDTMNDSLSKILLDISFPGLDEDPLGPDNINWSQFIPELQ
T2 sequence 2: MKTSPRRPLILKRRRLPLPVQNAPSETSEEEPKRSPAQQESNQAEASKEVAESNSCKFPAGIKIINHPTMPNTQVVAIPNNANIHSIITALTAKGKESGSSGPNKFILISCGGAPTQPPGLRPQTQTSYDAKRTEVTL
Put plainly: EMSA.

Data set [3] concerns the target T3, FOXM1 (endogenous) (human (endogenous in MDA-MB-231 and …, UniProt Q08050 1-763)).
T3 sequence: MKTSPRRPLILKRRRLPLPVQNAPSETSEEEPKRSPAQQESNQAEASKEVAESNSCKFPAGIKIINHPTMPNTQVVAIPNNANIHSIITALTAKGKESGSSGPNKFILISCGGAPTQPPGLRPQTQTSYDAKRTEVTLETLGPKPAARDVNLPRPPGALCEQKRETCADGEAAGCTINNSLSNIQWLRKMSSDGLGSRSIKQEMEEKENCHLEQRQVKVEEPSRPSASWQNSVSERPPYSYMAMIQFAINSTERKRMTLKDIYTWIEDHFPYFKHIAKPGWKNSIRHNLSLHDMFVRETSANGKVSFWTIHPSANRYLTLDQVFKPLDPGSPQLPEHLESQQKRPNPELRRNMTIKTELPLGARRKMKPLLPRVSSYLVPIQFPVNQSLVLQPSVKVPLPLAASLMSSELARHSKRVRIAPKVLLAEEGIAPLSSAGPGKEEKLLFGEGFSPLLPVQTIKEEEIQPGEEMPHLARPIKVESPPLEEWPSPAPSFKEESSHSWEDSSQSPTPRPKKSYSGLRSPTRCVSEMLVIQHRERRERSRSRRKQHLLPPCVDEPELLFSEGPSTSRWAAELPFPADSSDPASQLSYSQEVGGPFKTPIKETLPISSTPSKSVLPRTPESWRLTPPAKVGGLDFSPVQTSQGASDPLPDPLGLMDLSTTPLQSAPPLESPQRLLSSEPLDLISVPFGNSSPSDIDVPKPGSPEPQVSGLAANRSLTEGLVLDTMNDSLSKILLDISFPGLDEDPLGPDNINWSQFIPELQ
Put plainly: cell-based or functional assay.

B1: FAM-labeled FOXM1 dsDNA probe (Hot) (dsDNA)
DNA 1: TTTGTTTATTTGTTTGTTTATTTG
DNA 2: CAAATAAACAAACAAATAAACAAA
On to B1, for which the binding result in data set [1] and in data set [2] was “binds” in each case.

B2: M1-138 (recombinant FOXM1 N-terminal domain (1-138aa) fused with a nine arginine cell-penetrating peptide) (domain or fragment)
chain: MKTSPRRPLILKRRRLPLPVQNAPSETSEEEPKRSPAQQESNQAEASKEVAESNSCKFPAGIKIINHPTMPNTQVVAIPNNANIHSIITALTAKGKESGSSGPNKFILISCGGAPTQPPGLRPQTQTSYDAKRTEVTLRRRRRRRRR
For the molecule B2, in data set [3], the “IC50 of cell viability (CCK-8), A549 cells, 12 h treatment” value turned out to be 5.3 µM; the “IC50 of cell viability (CCK-8), Hela cells, 12 h treatment” value came out at 8.9 µM; the “IC50 of cell viability (CCK-8), HepG2 cells, 12 h treatment” value came to 13.8 µM; the “IC50 of cell viability (CCK-8), MCF-7 cells, 12 h treatment” value was 17.9 µM. The “IC50 of cell viability (CCK-8), MDA-MB-231 cells, 12 h treatment” value in data set [3] stood at 7.8 µM.

(Values after PMC6568178 (Theranostics, 2019).)
